# In the supplement of paper PMC7877785:
# ± gives the uncertainty stated by the source.
# Assay: self-splicing fitness, log relative to wild type (ln ratio); higher = more splicing; Tetrahymena group I intron in knt gene, E. coli kanamycin selection, DiMSum; sequences stand for … in CUCUCU…GGAGGGAAAAGUUAUCAGGCAUGCACCUGGUAGCUAGUCUUUAAACCAAUAGAUUGCAUCGGUUUAAAAGGCAAGACCGUCAAAUUGCGGGAAAGGGGUCAACAGCCGUUCAGUACCAAGUCUCAGGGGAAACUUUGAGAUGGCCUUGCAAAGGGUAUGGUAAUAAGCUGACGGACAUGGUCCUAACCACGCAGCCAAGUCCUAAGUCAACAGAUCUUCUGUUGAUAUGGAUGCAGUUCACAGACUAAAUGUCGGUCGGGGAAGAUGUAUUCUUCUCAUAAGAUAUAGUCGGACCUCUCCUUAAUGGGAGCUAGCGGAUGAAGUGAUGCAACACUGGAGCCGCUGGGAACUAAUUUGUAUGCGAAAGUAUAUUGAUUAGUUUUGGAGUACUCGUGGUCG
# How it was run: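 Library with all eight P1ex-region intron nucleotides randomised, intron inside the knt kanamycin-resistance gene on pET-22b(+), in E. coli BL21(DE3). Cells grew overnight at 37°C or 30°C on LB agar with or without 25 μg/mL kanamycin (plus 100 μg/mL carbenicillin, 50 μM IPTG, 0.2% rhamnose), in six replicate transformations. Pooled colonies were amplicon-sequenced on Illumina HiSeq 2500. DiMSum fitness is the error-weighted combination of wild-type-normalised replicate fold changes, kanamycin versus none.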
Sequence,self-splicing fitness (ln) (30 °C),self-splicing fitness (ln) (37 °C)
GCUCAGCAAUAUUACGGUUA,-0.772 ± 0.12,-0.237 ± 0.11
GCUCAGCAAUAUUACGGUUG,-4.11 ± 0.27,-2.28 ± 0.24
GCUCAGCAAUAUUACGUCAC,-3.37 ± 0.22,-2.06 ± 0.22
GCUCAGCAAUAUUACGUGAG,-4.29 ± 0.25,-3.23 ± 0.2
GCUCAGCAAUAUUACGUGUA,-0.241 ± 0.058,-0.00875 ± 0.067
GCUCAGCAAUAUUACGUGUC,-1.55 ± 0.078,-0.662 ± 0.081
GCUCAGCAAUAUUACGUUUU,-1.13 ± 0.056,0.00509 ± 0.068
GCUGAGCAAUAUUACGAAGU,–,-1.72 ± 0.41
GCUGAGCAAUAUUACGAUUC,-0.602 ± 0.1,-0.665 ± 0.11
GCUGAGCAAUAUUACGCGAG,-2.52 ± 0.16,-1.83 ± 0.23
GCUGAGCAAUAUUACGCUAU,-3.25 ± 0.19,-3.59 ± 0.28
GCUGAGCAAUAUUACGCUGG,-3.26 ± 0.31,-2.22 ± 0.42
GCUGAGCAAUAUUACGGAAU,-3.57 ± 0.25,-1.3 ± 0.17
GCUGAGCAAUAUUACGGAUG,-3.53 ± 0.18,-1.22 ± 0.12
GCUGAGCAAUAUUACGGCGC,-0.35 ± 0.13,-0.0749 ± 0.15
GCUGAGCAAUAUUACGGCUG,-1.57 ± 0.26,-1.96 ± 0.44
GCUGAGCAAUAUUACGUACA,-2.45 ± 0.24,-2.88 ± 0.28
GCUGAGCAAUAUUACGUACU,-1.76 ± 0.23,-1.07 ± 0.27
GCUGAGCAAUAUUACGUCAG,-3.35 ± 0.24,-2.15 ± 0.26
GCUGAGCAAUAUUACGUGCG,-1.62 ± 0.099,-1.01 ± 0.14
GCUGAGCAAUAUUACGUGCU,-3.42 ± 0.12,-3.39 ± 0.2
GCUGAGCAAUAUUACGUUGC,-4.04 ± 0.2,-2.53 ± 0.17
GCUUAGCAAUAUUACGAAAU,-0.692 ± 0.076,-0.498 ± 0.095
GCUUAGCAAUAUUACGAAGA,0.387 ± 0.24,-0.855 ± 0.15

Sequence,self-splicing fitness (ln) (30 °C),self-splicing fitness (ln) (37 °C)
GCUUAGCAAUAUUACGACCG,-1.2 ± 0.26,-1.19 ± 0.29
GCUUAGCAAUAUUACGAGCC,-4.35 ± 0.39,-1.53 ± 0.39
GCUUAGCAAUAUUACGAGGC,–,-1.93 ± 0.41
GCUUAGCAAUAUUACGAUGC,-1.43 ± 0.13,-0.976 ± 0.21
GCUUAGCAAUAUUACGAUUG,-3.31 ± 0.25,-1.01 ± 0.17
GCUUAGCAAUAUUACGCAAU,-0.651 ± 0.14,-1.35 ± 0.13
GCUUAGCAAUAUUACGCUAG,-2.81 ± 0.12,-2.19 ± 0.14
GCUUAGCAAUAUUACGCUCG,-0.579 ± 0.1,-0.0325 ± 0.16
GCUUAGCAAUAUUACGGAAG,-2.07 ± 0.14,-1.68 ± 0.14
GCUUAGCAAUAUUACGGCAC,-2.62 ± 0.44,0.326 ± 0.28
GCUUAGCAAUAUUACGGCGG,-3.5 ± 0.2,-3.14 ± 0.26
GCUUAGCAAUAUUACGGGGU,-2.56 ± 0.16,-2.55 ± 0.21
GCUUAGCAAUAUUACGGUAU,-1.74 ± 0.074,-1.15 ± 0.091
GCUUAGCAAUAUUACGUAAC,-0.517 ± 0.11,-0.62 ± 0.24
GCUUAGCAAUAUUACGUACG,-1.07 ± 0.065,0.0666 ± 0.089
GCUUAGCAAUAUUACGUAUG,-1.6 ± 0.18,-1.17 ± 0.2
GCUUAGCAAUAUUACGUGUU,-0.915 ± 0.081,-0.409 ± 0.087
GCUUAGCAAUAUUACGUUAA,–,-2.84 ± 0.29
GCUUAGCAAUAUUACGUUUG,-2.23 ± 0.12,-1.58 ± 0.14
GGAAAGCAAUAUUACGACGC,-0.197 ± 0.1,0.595 ± 0.16
GGAAAGCAAUAUUACGAUGG,-3.14 ± 0.22,-2.39 ± 0.21
GGAAAGCAAUAUUACGCAUA,-0.868 ± 0.1,-1.5 ± 0.12
GGAAAGCAAUAUUACGCGAG,-0.597 ± 0.1,0.758 ± 0.1
GGAAAGCAAUAUUACGCGUU,-3.16 ± 0.16,-2.49 ± 0.19
